Measurements reported in the supplement of paper PMC7877785.
± gives the uncertainty stated by the source.

Assay: self-splicing fitness, log relative to wild type (ln ratio); higher = more splicing; Tetrahymena group I intron in knt gene, E. coli kanamycin selection, DiMSum; sequences stand for … in CUCUCU…GGAGGGAAAAGUUAUCAGGCAUGCACCUGGUAGCUAGUCUUUAAACCAAUAGAUUGCAUCGGUUUAAAAGGCAAGACCGUCAAAUUGCGGGAAAGGGGUCAACAGCCGUUCAGUACCAAGUCUCAGGGGAAACUUUGAGAUGGCCUUGCAAAGGGUAUGGUAAUAAGCUGACGGACAUGGUCCUAACCACGCAGCCAAGUCCUAAGUCAACAGAUCUUCUGUUGAUAUGGAUGCAGUUCACAGACUAAAUGUCGGUCGGGGAAGAUGUAUUCUUCUCAUAAGAUAUAGUCGGACCUCUCCUUAAUGGGAGCUAGCGGAUGAAGUGAUGCAACACUGGAGCCGCUGGGAACUAAUUUGUAUGCGAAAGUAUAUUGAUUAGUUUUGGAGUACUCGUGGUCG
Summary of the method: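 Fitness was computed with DiMSum as the error-weighted combination of replicate fold changes, kanamycin versus none, each normalised to wild type. The library randomised all eight intron nucleotides of the P1ex region, with the intron placed in the knt kanamycin-resistance gene on pET-22b(+) in E. coli BL21(DE3). Six replicate transformations were grown overnight at 37°C or 30°C on LB agar with or without 25 μg/mL kanamycin, plus 100 μg/mL carbenicillin, 50 μM IPTG and 0.2% rhamnose. Pooled colonies were amplicon-sequenced on an Illumina HiSeq 2500.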

Sequence | self-splicing fitness (ln) (30 °C) | self-splicing fitness (ln) (37 °C)
GUACAGCAAUAUUACGAUGU | -1.33 ± 0.081 | 0.106 ± 0.088
CAGCAGCAAUAUUACGGACG | -0.284 ± 0.069 | -0.581 ± 0.081
AACCAGCAAUAUUACGUCCC | -0.726 ± 0.13 | 0.292 ± 0.18
UUAAAGCAAUAUUACGUAAG | -0.67 ± 0.082 | -0.258 ± 0.11
CGAAAGCAAUAUUACGGUAC | -2.51 ± 0.29 | –
UGGGAGCAAUAUUACGGGAG | -2.83 ± 0.25 | -2.94 ± 0.43
ACUAAGCAAUAUUACGCGGC | -3.74 ± 0.23 | -1.85 ± 0.18
CCGAAGCAAUAUUACGAUGG | -3.47 ± 0.19 | -3.7 ± 0.2
ACGCAGCAAUAUUACGUAUG | -4.32 ± 0.22 | -2.54 ± 0.16
GUCCAGCAAUAUUACGGGGC | -4.08 ± 0.27 | -1.8 ± 0.2
GGACAGCAAUAUUACGGCGA | -0.0139 ± 0.1 | -0.0325 ± 0.11
AGUCAGCAAUAUUACGCUAG | -3.33 ± 0.18 | -2.64 ± 0.23
AUAAAGCAAUAUUACGUUGU | -2.65 ± 0.11 | -1.9 ± 0.11
AAUGAGCAAUAUUACGUGAC | -3.08 ± 0.37 | -1.25 ± 0.19
ACCGAGCAAUAUUACGGAAU | -3.65 ± 0.2 | -2.33 ± 0.25
CUGUAGCAAUAUUACGCACG | -0.568 ± 0.12 | -0.0751 ± 0.12
UGGCAGCAAUAUUACGCCGG | -1.64 ± 0.14 | -0.838 ± 0.2
GAACAGCAAUAUUACGAGAG | -3.49 ± 0.17 | -1.83 ± 0.1
AUGCAGCAAUAUUACGAACA | -0.00786 ± 0.13 | 0.392 ± 0.16

Sequence | self-splicing fitness (ln) (30 °C) | self-splicing fitness (ln) (37 °C)
UGAUAGCAAUAUUACGUUAC | -3.01 ± 0.31 | -1.08 ± 0.22
GUGCAGCAAUAUUACGUGUU | -1.99 ± 0.081 | -1.22 ± 0.084
UCAUAGCAAUAUUACGCAAU | -3.1 ± 0.19 | -2.84 ± 0.28
GGCUAGCAAUAUUACGUGAA | -0.24 ± 0.086 | -0.383 ± 0.086
AAAUAGCAAUAUUACGUAGA | -3.32 ± 0.17 | -0.484 ± 0.1
GCUUAGCAAUAUUACGGUGC | -1.98 ± 0.12 | -0.681 ± 0.15
GUUUAGCAAUAUUACGGCAA | -0.678 ± 0.14 | -1.03 ± 0.13
UCCAAGCAAUAUUACGAGGU | -3.4 ± 0.14 | -1.8 ± 0.11
UAUAAGCAAUAUUACGGCUA | -0.234 ± 0.092 | -0.126 ± 0.13
AUCGAGCAAUAUUACGGAAG | – | -0.716 ± 0.16
AACUAGCAAUAUUACGCAAC | -3.49 ± 0.21 | -2.08 ± 0.18
AUAAAGCAAUAUUACGGUGU | -1.25 ± 0.068 | -0.672 ± 0.082
UGUUAGCAAUAUUACGUUCC | -2.47 ± 0.29 | -2.03 ± 0.41
UCCAAGCAAUAUUACGUCAG | -3.02 ± 0.15 | -1.69 ± 0.13
AAUGAGCAAUAUUACGAGAU | -3.92 ± 0.21 | -2.23 ± 0.13
ACGGAGCAAUAUUACGAGCG | -2.76 ± 0.28 | -1.59 ± 0.2
UGGUAGCAAUAUUACGGGUG | -1.26 ± 0.1 | -0.609 ± 0.08
GUCAAGCAAUAUUACGGUUG | -5.24 ± 0.39 | -3.24 ± 0.21
